Data from paper PMC11233879, “JrPHL8-JrWRKY4-JrSTH2L module regulates resistance to Colletotrichum gloeosporioides in walnut”.

T1: JrPHL8 (walnut (Juglans)?, UniProt A0A2I4DJV4 1-356)
T1 sequence: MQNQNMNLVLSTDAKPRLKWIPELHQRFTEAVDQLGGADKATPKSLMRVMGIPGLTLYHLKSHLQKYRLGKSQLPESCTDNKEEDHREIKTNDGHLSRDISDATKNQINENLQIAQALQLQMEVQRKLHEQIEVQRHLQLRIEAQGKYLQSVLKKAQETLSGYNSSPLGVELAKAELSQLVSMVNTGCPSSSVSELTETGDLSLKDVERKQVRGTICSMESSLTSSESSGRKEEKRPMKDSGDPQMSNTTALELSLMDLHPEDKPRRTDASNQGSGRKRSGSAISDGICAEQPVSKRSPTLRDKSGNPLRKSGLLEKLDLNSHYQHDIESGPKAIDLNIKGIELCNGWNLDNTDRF

B1: proJrSTH2L-Wbox (dsDNA)
DNA 1: AACCTAAACCCTTTGTGAAGTTGACCAGATCCTCAACCCGGGATGG
DNA 2: CCATCCCGGGTTGAGGATCTGGTCAACTTCACAAAGGGTTTAGGTT
B2: proJrWRKY4-MBS (dsDNA)
DNA 1: TTCACTATTACTGATATTCTCAACAGAAAAATGTCTAAGAGACAAT
DNA 2: ATTGTCTCTTAGACATTTTTCTGTTGAGAATATCAGTAATAGTGAA

Tests used:
[1] = molecular target: JrWRKY4 (walnut (Juglans)?, UniProt A0A2I4E3K4 1-517); assay: EMSA; LightShift Chemiluminescent EMSA Kit (Beyotime); cold probe 100-fold; buffer, salt, pH and temperature not stated; conditions: protein: recombinant; tags: pET32a fusion (Trx-His; article states His-tagged); label: biotin; blunt
JrWRKY4, sequence (A0A2I4E3K4 entry or part of it): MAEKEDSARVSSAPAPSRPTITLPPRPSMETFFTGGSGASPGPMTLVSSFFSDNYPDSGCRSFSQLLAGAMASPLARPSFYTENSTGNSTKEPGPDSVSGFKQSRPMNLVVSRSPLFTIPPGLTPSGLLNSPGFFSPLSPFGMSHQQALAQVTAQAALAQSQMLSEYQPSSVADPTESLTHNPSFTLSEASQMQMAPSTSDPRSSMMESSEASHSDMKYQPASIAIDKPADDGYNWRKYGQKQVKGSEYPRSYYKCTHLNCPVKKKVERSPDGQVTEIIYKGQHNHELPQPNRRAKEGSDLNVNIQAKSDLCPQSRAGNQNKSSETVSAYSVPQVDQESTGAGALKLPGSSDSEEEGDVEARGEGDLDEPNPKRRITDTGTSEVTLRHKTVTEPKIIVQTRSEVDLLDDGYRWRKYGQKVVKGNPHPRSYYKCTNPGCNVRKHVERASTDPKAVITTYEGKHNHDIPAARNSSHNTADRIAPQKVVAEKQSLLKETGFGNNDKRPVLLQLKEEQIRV

[2] = molecular target: T1, JrPHL8; assay: as above; conditions: protein: recombinant; tags: His (pET32a fusion); chain copies: 2; label: biotin; blunt

Binder	binding result [1]	binding result [2]
B1	binds	–
B2	–	binds
